Patent US6472171

T1: chicken protein disulfide isomerase, P09102
T1 chain: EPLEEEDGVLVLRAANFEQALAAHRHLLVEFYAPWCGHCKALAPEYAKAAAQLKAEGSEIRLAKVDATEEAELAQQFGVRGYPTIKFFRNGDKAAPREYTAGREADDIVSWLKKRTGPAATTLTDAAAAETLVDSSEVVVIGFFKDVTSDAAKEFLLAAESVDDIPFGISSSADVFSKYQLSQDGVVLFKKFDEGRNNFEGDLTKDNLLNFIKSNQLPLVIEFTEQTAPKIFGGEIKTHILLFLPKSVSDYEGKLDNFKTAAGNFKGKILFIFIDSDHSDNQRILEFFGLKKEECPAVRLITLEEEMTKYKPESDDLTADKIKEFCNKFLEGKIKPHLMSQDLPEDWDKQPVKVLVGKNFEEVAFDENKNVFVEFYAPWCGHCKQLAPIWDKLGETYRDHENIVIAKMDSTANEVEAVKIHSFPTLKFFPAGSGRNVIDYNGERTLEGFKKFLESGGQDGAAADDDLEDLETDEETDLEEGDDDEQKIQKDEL

B1: chicken prolyl 4-hydroxylase subunit (protein)
chain: HTDFFTSIGHMTDLINTEKDLVISKLKDYIKAEESKLEQIKKWAEKLDKLTDTATKDPEGFLGHPANAFKLMKRLNTEWGELESLVLKDMSDGFISNMTIQRQFFPNDEDQTGARKALLRLQDTYNLDTDTLSRGNLPGVKHKSFLTAEDCFELGKIRYTEADYYHTELWMEQALKQLDEGEVSSADKVYILDYLSYAVYQQGDLSKAMMLTKRLLELDPEHQRANGNMKYFEYIMAKEKEANKSSTDAEDQTDKETEVKKKDYLPERRKYEMLCRGEGLKMTPRRQKRLFCRYYDGNRNPRYILGPVKQEDEWDKPRIVRFLDIISDEEIETVKELAKPRLSRATVHDPETGKLTTAHYRVSKSAWLSGYESPVVSRINTRIQDLTGLDVSTAEELQVANYGVGGQYEPHFDFGRKDEPDAFKELGTGNRIATWLFYMSDVSAGGATVFPEVGASVWPKKGTAVFWYNLFPSGEGDYSTRHAACPVLVGNKWVSNKWLHERGQEFRRPCTLSELE
B2: human prolyl 4-hydroxylase subunit (protein)
chain: HPGFFTSIGQMTDLIHTEKDLVTSLKDYIKAEEDKLEQIKKWAEKLDRLTSTATKDPEGFVGHPVNAFKLMKRLNTEWSELENLVLKDMSDGFISNLTIQRQYFPNDEDQVGAAKALLRLQDTYNLDTDTISKGNLPGVKHKSFLTAEDCFELGKVAYTEADYYHTELWMEQALRQLDEGEISTIDKVSVLDYLSYAVYQQGDLDKALLLTKKLLELDPEHQRANGNLKYFEYIMAKEKDVNKSASDDQSDQKTTPKKKGVAVDYLPERQKYEMLCRGEGIKMTPRRQKKLFCRYHDGNRNPKFILAPAKQEDEWDKPRIIRFHDIISDAEIEIVKDLAKPRLRRATISNPITGDLETVHYRISKSAWLSGYENPVVSRINMRIQDLTGLDVSTAEELQVANYGVGGQYEPHFDFARKDEPDAFKELGTGNRIATWLFYMSDVSAGGATVFPEVGASVWPKKGTAVFWYNLFASGEGDYSTRHAACPVLVGNKWVSNKWLHERGQEFRRPCTLSELE

Columns and labels:
[1] = target: T1, chicken protein disulfide isomerase, …
[2] = target: human protein disulfide isomerase, P07237
human protein disulfide isomerase, P07237, sequence (P07237 18-508): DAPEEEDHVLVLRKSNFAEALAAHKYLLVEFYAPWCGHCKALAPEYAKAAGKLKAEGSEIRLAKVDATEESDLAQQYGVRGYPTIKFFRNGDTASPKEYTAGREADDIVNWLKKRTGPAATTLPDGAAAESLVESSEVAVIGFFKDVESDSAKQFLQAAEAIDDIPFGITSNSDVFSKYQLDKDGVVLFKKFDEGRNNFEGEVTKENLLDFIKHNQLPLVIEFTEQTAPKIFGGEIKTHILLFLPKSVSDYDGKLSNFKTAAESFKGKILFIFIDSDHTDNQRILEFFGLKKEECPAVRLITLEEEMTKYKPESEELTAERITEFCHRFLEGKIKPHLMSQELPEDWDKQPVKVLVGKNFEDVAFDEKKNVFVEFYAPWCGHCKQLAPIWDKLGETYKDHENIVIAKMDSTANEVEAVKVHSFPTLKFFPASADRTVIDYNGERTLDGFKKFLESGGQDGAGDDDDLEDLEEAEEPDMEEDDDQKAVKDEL

Row | Protein | production of hydroxylated, heterotrimeric type 1 procollagen in yeast (plasmid Gp5563, cPDI/cP4-H) [1] | production of hydroxylated, heterotrimeric type 1 procollagen in yeast (plasmid Gp5511, cPDI/hP4-H) [1] | production of hydroxylated, heterotrimeric type 1 procollagen in yeast (plasmid Gp5565, hPDI/hP4-H) [2] [times lower]
1 | B1 | produce levels of hydroxylated heterotrimeric procollagen equal to that found with plasmid Gp5511 |  | 
2 | B2 |  | Plasmid Gp5511 (cPDI/hP4-H) generated the first hydroxylated type 1 (α1α2) procollagen expressed in yeast | < 3
